Assay results reported in article PMC9457596, “Optimization of Bifunctional Antisense Oligonucleotides for Regulation of Mutually Exclusive Alternative Splicing of PKM Gene”.

Target: T1, hnRNP A1 (UniProt P09651 2-196)
Test: EMSA; 150 mM KCl, 50 mM L-Arg, 50 mM L-Glu, 1.5 mM MgCl2, 0.2 mM EDTA, 0.05% BME, 20 mM Na2HPO4, pH 7.0, 4 C, 30 min; 0.5 uM RNA, 0.1-60 uM protein (Kd) or 60 uM (scr)
Conditions: protein: recombinant; label: 5'-6-FAM; G4, intermolecular, two tetrads

T1 sequence (P09651 2-196): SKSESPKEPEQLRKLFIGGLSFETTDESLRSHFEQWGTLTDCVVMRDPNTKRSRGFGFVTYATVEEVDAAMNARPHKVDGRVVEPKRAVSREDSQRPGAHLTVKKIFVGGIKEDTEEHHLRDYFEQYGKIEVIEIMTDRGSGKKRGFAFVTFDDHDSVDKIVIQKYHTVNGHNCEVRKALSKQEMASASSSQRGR

**Q.** With UAGGUUAGGU (structured_RNA) [D2] as the binder, how does the Kd read?
**A.** 1200 nM

Same assay, conditions: protein: recombinant; label: 5'-6-FAM; duplex/hairpin

**Q.** With CAGGUGAGUCAGGUGAGUCAGGUGAGU (structured_RNA) [B3] as the binder, how does the Kd read?
**A.** 1990 nM

**Q.** How did the Kd turn out when CAGGUGAGUCAGGUGAGU (structured_RNA) [B2] was run?
**A.** 1760 nM

Same assay, conditions: protein: recombinant; label: 5'-6-FAM; no UV melting transition

**Q.** How did the Kd turn out when CAGGUAAGUCAGGUAAGUCAGGUAAGU (ssRNA) [A3] was run?
**A.** ~1700 nM

**Q.** Which Kd does the source give for CAGGUAAGUCAGGUAAGU (ssRNA) [A2] here?
**A.** ~1700 nM

Same assay, conditions: protein: recombinant; label: 5'-6-FAM; single-stranded

**Q.** How did the Kd turn out when UAGGAUAGGA (ssRNA) [C2] was run?
**A.** 1440 nM

Target: T1, hnRNP A1
Test: EMSA; 60 uM protein, 0.5 uM RNA; 150 mM KCl, 50 mM L-Arg, 50 mM L-Glu, 1.5 mM MgCl2, 0.2 mM EDTA, 0.05% BME, 20 mM Na2HPO4, pH 7.0, 4 C, 30 min; 0.5 uM RNA, 0.1-60 uM protein (Kd) or 60 uM (scr)
Conditions: protein: recombinant; label: 5'-6-FAM

**Q.** Does AUUUA (ssRNA) [oligo 41] bind?
**A.** no binding

**Q.** Does CACAGA (ssRNA) [oligo 21] bind?
**A.** no binding

**Q.** Does UAGGU (ssRNA) [sequence D] bind?
**A.** binds

**Q.** Does CAGGUGAGU (ssRNA) [sequence B (2)] bind?
**A.** binds

**Q.** Does UAGGA (ssRNA) [sequence C (3)] bind?
**A.** binds

**Q.** Does CAGGUAAGU (ssRNA) [sequence A (1)] bind?
**A.** binds

**Q.** Does AAGGUGAU (ssRNA) [oligo 20] bind?
**A.** no binding

**Q.** Does AAGGUAAGU (ssRNA) [oligo 6] bind?
**A.** binds

**Q.** Does UGUAGG (ssRNA) [oligo 7] bind?
**A.** binds

**Q.** Does UAGG (ssRNA) [oligo 5] bind?
**A.** binds
